The values that follow come from patent publication US20030077318A1.

The target of experiment [1] is recombinant biotinylated L^d immobilized on avidin-coated sheep red blood cells (mouse) (UniProt P01897). The experiment in a line: flow cytofluorometry of L^d on avidin-coated SRBC.
The target in experiment [2] is L^d on transfected Drosophila S2 (fly) cells with QL9 peptide (mouse) (UniProt P01887). The experiment in a line: cell-based or functional assay.
Experiment [3] has as its target L^d on transfected Drosophila S2 (fly) cells with p2Ca peptide (mouse) (UniProt P01887). The experiment in a line: cell-based or functional assay.

L^d on transfected Drosophila S2 (fly) cells with p2Ca peptide (mouse), sequence (P01897 25-362, chain 1 of 2): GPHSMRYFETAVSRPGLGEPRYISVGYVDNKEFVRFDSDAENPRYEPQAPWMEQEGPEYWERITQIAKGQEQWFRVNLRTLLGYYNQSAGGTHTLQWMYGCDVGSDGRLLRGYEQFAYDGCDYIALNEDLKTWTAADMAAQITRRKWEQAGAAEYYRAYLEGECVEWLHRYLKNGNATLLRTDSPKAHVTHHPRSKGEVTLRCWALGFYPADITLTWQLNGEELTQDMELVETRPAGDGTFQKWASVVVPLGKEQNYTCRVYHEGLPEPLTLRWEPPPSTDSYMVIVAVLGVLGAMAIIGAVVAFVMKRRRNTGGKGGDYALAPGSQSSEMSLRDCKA
L^d on transfected Drosophila S2 (fly) cells with p2Ca peptide (mouse), sequence (P01887 21-119, chain 2 of 2): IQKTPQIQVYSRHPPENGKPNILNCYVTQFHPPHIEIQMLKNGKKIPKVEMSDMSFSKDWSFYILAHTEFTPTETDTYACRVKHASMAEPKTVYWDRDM
L^d on transfected Drosophila S2 (fly) cells with QL9 peptide (mouse), sequence (P01897 25-362, chain 1 of 2): as the sequence (P01897 25-362, chain 1 of 2) above
L^d on transfected Drosophila S2 (fly) cells with QL9 peptide (mouse), sequence (P01887 21-119, chain 2 of 2): as the sequence (P01887 21-119, chain 2 of 2) above
recombinant biotinylated L^d immobilized on avidin-coated sheep red blood cells (mouse), sequence (P01897 25-362): as the sequence (P01897 25-362, chain 1 of 2) above

Consider monoclonal antibody 30.5.7 (anti-L^d), for which the percent of cells labeled in experiment [1] stood at 99.8%.
Take “2C T-cell receptor (TCR), on CD8+ lymph node T cells of 2C TCR transgenic mice”: in experiment [2], the IL-2 Production (Day 2), ^3HTdR incorporation of CTLL; L^d + B7.1 cells combined with L^d ICAM-1 cells came to 500 cpm; the IL-2 Production (Day 2), ^3HTdR incorporation of CTLL; fly cells expressing L^d came to 100 cpm; the IL-2 Production (Day 2), ^3HTdR incorporation of CTLL; fly cells expressing L^d + B7.1 amounted to 400 cpm; the IL-2 Production (Day 2), ^3HTdR incorporation of CTLL; fly cells expressing L^d + B7.1 + ICAM-1 was 159000 cpm. In experiment [2], the IL-2 Production (Day 2), ^3HTdR incorporation of CTLL; fly cells expressing L^d + ICAM-1 amounted to 200 cpm; the Proliferation (Day 3), ^3HTdR incorporation; L^d + B7.1 cells combined with L^d ICAM-1 cells was determined as 133000 cpm; the Proliferation (Day 3), ^3HTdR incorporation; fly cells expressing L^d amounted to 200 cpm; the Proliferation (Day 3), ^3HTdR incorporation; fly cells expressing L^d + B7.1 was 60900 cpm. For the same substance, in experiment [2], the Proliferation (Day 3), ^3HTdR incorporation; fly cells expressing L^d + B7.1 + ICAM-1 stood at 264000 cpm and the Proliferation (Day 3), ^3HTdR incorporation; fly cells expressing L^d + ICAM-1 was 73900 cpm. Further, in experiment [3], the IL-2 Production (Day 2), ^3HTdR incorporation of CTLL; L^d + B7.1 cells combined with L^d ICAM-1 cells came to 300 cpm; the IL-2 Production (Day 2), ^3HTdR incorporation of CTLL; fly cells expressing L^d was 200 cpm; the IL-2 Production (Day 2), ^3HTdR incorporation of CTLL; fly cells expressing L^d + B7.1 is 200 cpm; the IL-2 Production (Day 2), ^3HTdR incorporation of CTLL; fly cells expressing L^d + B7.1 + ICAM-1 is 64600 cpm. In experiment [3], the IL-2 Production (Day 2), ^3HTdR incorporation of CTLL; fly cells expressing L^d + ICAM-1 is 100 cpm; the Proliferation (Day 3), ^3HTdR incorporation; L^d + B7.1 cells combined with L^d ICAM-1 cells was 1500 cpm; the Proliferation (Day 3), ^3HTdR incorporation; fly cells expressing L^d is 200 cpm; the Proliferation (Day 3), ^3HTdR incorporation; fly cells expressing L^d + B7.1 worked out at 300 cpm. In experiment [3], the Proliferation (Day 3), ^3HTdR incorporation; fly cells expressing L^d + B7.1 + ICAM-1 was 142000 cpm and the Proliferation (Day 3), ^3HTdR incorporation; fly cells expressing L^d + ICAM-1 stood at 1500 cpm.
